Consider 3 molecules from publication doi:10.1101/2024.05.17.594765, “Force-activated zyxin assemblies coordinate actin nucleation and crosslinking to orchestrate stress fiber repair” (bioRxiv, 2024).

First the molecules themselves.
B1: C-terminally Halo-tagged full-length zyxin (zyxin-Halo) (natural protein, human, UniProt Q15942 1-572, looked up)
chain: MAAPRPSPAISVSVSAPAFYAPQKKFGPVVAPKPKVNPFRPGDSEPPPAPGAQRAQMGRVGEIPPPPPEDFPLPPPPLAGDGDDAEGALGGAFPPPPPPIEESFPPAPLEEEIFPSPPPPPEEEGGPEAPIPPPPQPREKVSSIDLEIDSLSSLLDDMTKNDPFKARVSSGYVPPPVATPFSSKSSTKPAAGGTAPLPPWKSPSSSQPLPQVPAPAQSQTQFHVQPQPQPKPQVQLHVQSQTQPVSLANTQPRGPPASSPAPAPKFSPVTPKFTPVASKFSPGAPGGSGSQPNQKLGHPEALSAGTGSPQPPSFTYAQQREKPRVQEKQHPVPPPAQNQNQVRSPGAPGPLTLKEVEELEQLTQQLMQDMEHPQRQNVAVNELCGRCHQPLARAQPAVRALGQLFHIACFTCHQCAQQLQGQQFYSLEGAPYCEGCYTDTLEKCNTCGEPITDRMLRATGKAYHPHCFTCVVCARPLEGTSFIVDQANRPHCVPDYHKQYAPRCSVCSEPIMPEPGRDETVRVVALDKNFHMKCYKCEDCGKPLSIEADDNGCFPLDGHVLCRKCHTARAQT
modifications: Janelia Fluor 646 Halo-ligand conjugated to the Halo tag
notes: zyxin, human, full length; pCAG vector with a C-terminal 3C protease cleavage site and eGFP tag; eGFP removed with 3C protease on the resin; also called zyxin^WT; zyxin-Halo:JF646; source: HEK293F, transfected, purified (anti-GFP nanobody resin, 3C protease, Mono Q, SEC); not shown: Halo, C-terminal, kept; eGFP, C-terminal, cleaved
B2: C-terminally Halo-tagged VASP (VASP-Halo) (natural protein, human, UniProt P50552 1-380, looked up)
chain: MSETVICSSRATVMLYDDGNKRWLPAGTGPQAFSRVQIYHNPTANSFRVVGRKMQPDQQVVINCAIVRGVKYNQATPNFHQWRDARQVWGLNFGSKEDAAQFAAGMASALEALEGGGPPPPPALPTWSVPNGPSPEEVEQQKRQQPGPSEHIERRVSNAGGPPAPPAGGPPPPPGPPPPPGPPPPPGLPPSGVPAAAHGAGGGPPPAPPLPAAQGPGGGGAGAPGLAAAIAGAKLRKVSKQEEASGGPTAPKAESGRSGGGGLMEEMNAMLARRRKATQVGEKTPKDESANQEEPEARVPAQSESVRRPWEKNSTTLPRMKSSSSVTTSETQPCTPSSSDYSDLQRVKQELLEEVKKELQKVKEEIIEAFVQELRKRGSP
modifications: Janelia Fluor 549 Halo-ligand conjugated to the Halo tag
notes: VASP (vasodilator-stimulated phosphoprotein), human; also called VASP^WT; VASP-Halo:JF549; source: E. coli Rosetta2(DE3), purified (Ni-NTA, StrepTrap XT, 3C protease, SEC); not shown: Strep-Tag II, N-terminal, cleaved; Halo, C-terminal, kept; 6xHis-Tag, C-terminal, cleaved
B3: minimal zyxin construct with the N-terminal binding motifs (amino acids 1–160), Halo-tagged (domain or fragment, human, UniProt Q15942 1-160, looked up)
chain: MAAPRPSPAISVSVSAPAFYAPQKKFGPVVAPKPKVNPFRPGDSEPPPAPGAQRAQMGRVGEIPPPPPEDFPLPPPPLAGDGDDAEGALGGAFPPPPPPIEESFPPAPLEEEIFPSPPPPPEEEGGPEAPIPPPPQPREKVSSIDLEIDSLSSLLDDMTK
modifications: Janelia Fluor 646 Halo-ligand conjugated to the Halo tag
notes: zyxin, human, amino acids 1–160; also called zyxin^N-term; source: HEK293F, transfected, purified (anti-GFP nanobody resin, 3C protease, Mono Q, SEC); not shown: Halo, C-terminal, kept; eGFP, C-terminal, cleaved

Common to all, as to conditions: both partners purified
Assay [1] concerns the target T1, C-terminally Halo-tagged ɑ-actinin-1 (ɑ-actinin-Halo) (human, UniProt P12814 1-892, Janelia Fluor 549 Halo-ligand (TIRF assays) or Alexa Fluor 488 Halo-ligand (droplet assays) conjugated to the Halo tag; unlabeled in the bundle assays).
T1 construct: ɑ-actinin-1, human; also called ɑ-actinin^WT; ɑ-actinin-Halo:JF549; source: E. coli Rosetta2(DE3), purified (Ni-NTA, TEV protease, HiTrap Q HP, SEC); not shown: 6xHis-Tag, N-terminal, cleaved; Halo, C-terminal, kept
The experiment in a line: TIRF microscopy, force reconstitution assay with purified proteins; immobilised myosins, 30% ATTO 488-labeled F-actin, 25 nM (or 250 nM) zyxin-Halo:JF646 and 50 nM ɑ-actinin-Halo:JF549 in MBOS, +ATP (myosin forces); room temperature.

The target in assay [2] is B1. The experiment in a line: droplet co-partitioning (iSIM fluorescence microscopy); zyxin construct, VASP and ɑ-actinin mixed together in MBOS with 3% PEG 8K, room temperature; small clusters also without PEG 8K at native cellular concentrations.
For assay [3], the target named is B2. The description is as above.

T1 sequence (P12814 whole entry): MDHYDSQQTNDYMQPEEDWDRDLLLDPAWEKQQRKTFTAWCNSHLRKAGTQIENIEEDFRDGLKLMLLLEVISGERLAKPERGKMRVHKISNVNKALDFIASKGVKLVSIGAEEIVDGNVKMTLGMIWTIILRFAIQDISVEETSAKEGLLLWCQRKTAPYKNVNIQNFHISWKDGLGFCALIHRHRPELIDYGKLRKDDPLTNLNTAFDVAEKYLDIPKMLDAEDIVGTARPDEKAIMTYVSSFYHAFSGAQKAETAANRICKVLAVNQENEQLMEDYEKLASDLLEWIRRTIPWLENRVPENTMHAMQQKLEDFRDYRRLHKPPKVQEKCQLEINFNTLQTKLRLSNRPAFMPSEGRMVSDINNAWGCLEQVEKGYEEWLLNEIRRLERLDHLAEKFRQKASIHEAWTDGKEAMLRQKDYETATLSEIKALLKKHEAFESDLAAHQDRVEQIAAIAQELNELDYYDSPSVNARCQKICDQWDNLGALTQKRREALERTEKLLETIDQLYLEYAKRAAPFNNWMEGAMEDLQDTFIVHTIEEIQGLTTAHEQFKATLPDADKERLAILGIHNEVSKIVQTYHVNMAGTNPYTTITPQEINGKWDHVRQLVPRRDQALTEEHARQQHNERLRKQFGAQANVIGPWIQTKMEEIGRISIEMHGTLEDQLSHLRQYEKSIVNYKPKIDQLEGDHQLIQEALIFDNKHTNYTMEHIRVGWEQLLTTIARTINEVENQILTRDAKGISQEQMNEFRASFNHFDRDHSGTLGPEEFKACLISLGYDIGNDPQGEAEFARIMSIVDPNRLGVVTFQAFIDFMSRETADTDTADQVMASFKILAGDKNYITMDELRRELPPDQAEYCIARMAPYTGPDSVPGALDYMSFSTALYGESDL

As for B1, the binding result in assay [1] is reported as “binds”.

Take B2: the binding result in assay [2] is reported as “binds”.

Take B3: the binding result in assay [3] is “binds”.
